This passage reports ratio to parent results from publication PMC5040961.

This test deals with T1, FLAG-tagged Lgl1 (Lethal giant larvae 1), Q80Y17.
T1 chain: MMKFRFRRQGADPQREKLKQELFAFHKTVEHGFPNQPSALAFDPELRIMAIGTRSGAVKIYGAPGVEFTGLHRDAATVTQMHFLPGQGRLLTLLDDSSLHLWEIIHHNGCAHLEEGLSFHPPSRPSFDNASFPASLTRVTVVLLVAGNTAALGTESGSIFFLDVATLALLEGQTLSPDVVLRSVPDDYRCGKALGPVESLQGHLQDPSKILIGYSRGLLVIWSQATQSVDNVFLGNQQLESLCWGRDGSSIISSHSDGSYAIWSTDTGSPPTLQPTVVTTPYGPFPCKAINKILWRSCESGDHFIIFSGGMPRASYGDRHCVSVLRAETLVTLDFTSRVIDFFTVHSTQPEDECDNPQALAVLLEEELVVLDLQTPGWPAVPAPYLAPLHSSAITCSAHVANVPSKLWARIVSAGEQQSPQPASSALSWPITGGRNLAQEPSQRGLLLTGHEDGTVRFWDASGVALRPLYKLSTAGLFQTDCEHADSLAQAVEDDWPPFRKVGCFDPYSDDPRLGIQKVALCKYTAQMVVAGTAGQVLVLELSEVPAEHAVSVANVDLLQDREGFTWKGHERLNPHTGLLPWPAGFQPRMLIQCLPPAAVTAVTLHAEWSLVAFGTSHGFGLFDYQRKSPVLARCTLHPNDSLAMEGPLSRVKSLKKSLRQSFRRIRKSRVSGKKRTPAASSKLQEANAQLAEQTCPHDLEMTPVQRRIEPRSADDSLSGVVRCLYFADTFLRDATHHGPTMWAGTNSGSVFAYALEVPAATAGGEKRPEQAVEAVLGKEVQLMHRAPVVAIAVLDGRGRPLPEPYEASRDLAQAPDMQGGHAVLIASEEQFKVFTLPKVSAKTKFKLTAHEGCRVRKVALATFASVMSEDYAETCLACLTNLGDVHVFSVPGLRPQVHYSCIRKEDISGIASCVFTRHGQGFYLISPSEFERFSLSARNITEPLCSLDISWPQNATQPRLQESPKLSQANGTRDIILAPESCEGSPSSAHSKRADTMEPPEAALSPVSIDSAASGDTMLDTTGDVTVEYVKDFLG
Put plainly: co-immunoprecipitation (FLAG IP, western blot with HA and FLAG antibodies, quantified). To be noted: chain shown with the change; HEK293T cell lysates; n = 3; parent: est. 1.0; read off a plot. (In general: In western blotting, separated proteins are transferred to a membrane and probed.)

B1: HA-PKCζ-wt, Q05513 K225R; K284R; K378R (protein)
chain: MPSRTGPKMEGSGGRVRLKAHYGGDIFITSVDAATTFEELCEEVRDMCRLHQQHPLTLKWVDSEGDPCTVSSQMELEEAFRLARQCRDEGLIIHVFPSTPEQPGLPCPGEDKSIYRRGARRWRKLYRANGHLFQAKRFNRRAYCGQCSERIWGLARQGYRCINCKLLVHKRCHGLVPLTCRKHMDSVMPSQEPPVDDKNEDADLPSEETDGIAYISSSRKHDSIRDDSEDLKPVIDGMDGIKISQGLGLQDFDLIRVIGRGSYAKVLLVRLKKNDQIYAMKVVRKELVHDDEDIDWVQTEKHVFEQASSNPFLVGLHSCFQTTSRLFLVIEYVNGGDLMFHMQRQRKLPEEHARFYAAEICIALNFLHERGIIYRDLRLDNVLLDADGHIKLTDYGMCKEGLGPGDTTSTFCGTPNYIAPEILRGEEYGFSVDWWALGVLMFEMMAGRSPFDIITDNPDMNTEDYLFQVILEKPIRIPRFLSVKASHVLKGFLNKDPKERLGCRPQTGFSDIKSHAFFRSIDWDLLEKKQALPPFQPQITDDYGLDNFDTQFTSEPVQLTPDDEDAIKRIDQSEFEGFEYINPLLLSTEESV
As for B1, the ratio to parent turned out to be 2.4.
